Measurements published in paper PMC5995851, “Conformational rearrangements of the C1 ring in KaiC measure the timing of assembly with KaiB” (Scientific Reports, 2018).
Positions count from the first letter of the chain named.

Key:
[1] = target: T1, KaiC^S157W-D/T (S157W/S431D, pS/T mimic) (Synechococcus elongatus, UniProt Q79PF4 1-519, S157W | S431D); assay: tryptophan (W157) fluorescence quenching; KaiC^S157W phospho-mimicking mutants with or without an equimolar concentration of KaiB (monomer basis), spectra after 24 h incubation at 30 °C; 50 mM Tris, 150 mM NaCl, 5 mM MgCl2, 0.5 mM EDTA, 1 mM ATP, pH 8.0; excitation 295 nm; settings: both partners purified
T1 construct: Circadian clock protein KaiC, Synechococcus elongatus, with C1 and C2 domains; Trp probe S157W and phospho-mimicking S431D
T1 sequence: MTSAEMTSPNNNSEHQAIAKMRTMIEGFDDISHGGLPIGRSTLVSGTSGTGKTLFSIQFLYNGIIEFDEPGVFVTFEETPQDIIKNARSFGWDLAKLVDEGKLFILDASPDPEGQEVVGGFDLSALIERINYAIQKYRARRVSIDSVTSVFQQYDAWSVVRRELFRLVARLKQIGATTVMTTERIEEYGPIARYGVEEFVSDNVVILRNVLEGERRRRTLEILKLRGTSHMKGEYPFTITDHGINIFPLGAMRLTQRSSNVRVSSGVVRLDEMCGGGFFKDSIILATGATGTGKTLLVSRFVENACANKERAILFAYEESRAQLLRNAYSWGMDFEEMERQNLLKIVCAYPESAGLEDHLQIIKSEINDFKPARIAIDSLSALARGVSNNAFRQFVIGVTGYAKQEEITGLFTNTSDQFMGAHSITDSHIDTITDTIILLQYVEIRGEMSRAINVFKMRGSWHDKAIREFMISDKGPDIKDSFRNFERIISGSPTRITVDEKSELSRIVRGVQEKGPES

[2] = target: T2, KaiC^S157W-D/E (S157W/S431D/T432E, pS/pT mimic) (Synechococcus elongatus, UniProt Q79PF4 1-519, S157W | S431D | T432E); assay: other fluorescence titration; time-resolved W157 fluorescence at 30 °C after addition of KaiB to KaiC pre-incubated at 30 °C for at least 2 h; KaiC^S157W-D/E fixed at 3.5 µM, KaiB equimolar or 0.9-10.5 µM; 1 mM ATP buffer, pH 8.0; settings: both partners purified
T2 construct: Circadian clock protein KaiC, Synechococcus elongatus, with C1 and C2 domains; Trp probe S157W and phospho-mimicking S431D/T432E
T2 sequence: T1 sequence with T432E

B1: KaiB (wild type) (natural protein, Synechococcus elongatus, UniProt Q79PF5 1-102, looked up)
chain: MSPRKTYILKLYVAGNTPNSVRALKTLKNILEVEFQGVYALKVIDVLKNPQLAEEDKILATPTLAKVLPLPVRRIIGDLSDREKVLIGLDLLYGELQDSDDF
notes: Circadian clock protein KaiB, Synechococcus elongatus, wild type
binding result [1]: binds | t1/2 of the FIapp decrease after addition of equimolar KaiB [2]: 2.4 h
